Publication doi:10.1101/2021.09.24.461649 (bioRxiv, 2021)

Molecular target: the molecule itself
Experiment: SEC

B1: EspC (ESX-1 secreted protein C), wild type (natural protein)
chain: MMTENLTVQPERLGVLASHHDNAAVDASSGVEAAAGLGESVAITHGPYCSQFNDTLNVYLTAHNALGSSLHTAGVDLAKSLRIAAKIYSEADEAWRKAIDGLFT
stoichiometry N: 6
